The results in this text go back to patent publication US20040161798A1 (University of Texas, published 2004).

No end group written: not given here.

The target in one test is T1, GST-Mdm2 (human, UniProt Q00987 1-188).
T1 construct: range 1-188; also called GST fused human Mdm2
The test is described as follows: protein retained on TentaGel beads with scrambled peptide, SDS-PAGE/Western blot. For orientation: A western blot detects proteins with antibodies after separation by electrophoresis.

The target in test [1] is T2, ubiquitin (Homo sapiens (Human), UniProt P0CG47 1-76, The screen used fluorescently labelled ubiquitin. The ITC and pull-down assays used unlabelled (native) ubiquitin.).
T2 construct: Unlabeled in ITC and in the pull-down assays; also called native ubiquitin
The test is described as follows: isothermal titration calorimetry in solution.

The target of test [2] is T2, ubiquitin. The test is described as follows: isothermal titration calorimetry in solution, against NH2-RWDRYYF. On the technique in general: ITC needs no label: the signal is the heat of the interaction.
The target of test [3] is T3, GST-KIX (mouse, UniProt P45481 378-817).
T3 construct: range 378-817; also called GSTCBP(378-817); GST fusion of CBP(378-817)
The experiment in a line: dilution assay on TentaGel beads, Western blot.

Test [4] concerns the target T3, GST-KIX. The test is described as follows: fluorescence polarization after adding excess unlabeled peptide. An excerpt: (§1) Fluorescence anisotropy measurements were taken every 30 seconds.
(§2) Complex half life of immobilized peptides and dimeric proteins. Peptide libraries are rich sources of protein-binding molecules and there exist many straightforward methods to screen such libraries. […] To test the surface-mediated avidity concept, a collection of peptides known to bind different proteins were assembled, some homodimers and some monomers.
For orientation: Polarisation of emitted light reports the rotation of a fluorescent probe.

Test [5] deals with T4, His6-KIX (mouse, UniProt P45481 378-817).
T4 construct: range 378-817; Monomer; also called CBP(378-817) from pRSET-CBP(378-817); not shown: N-terminal His6 tag of vector pRSET-A
Described as above.
From the text: as §1, §2

Test [6] deals with T3, GST-KIX. The experiment in a line: fluorescence polarization titration in solution; paragraph 167 gives this value for His6-KIX and GST-KIX.
From the text: (§3) Determination of solution binding constants.
as §2

Test [7] addresses T4, His6-KIX. Described as above.
From the text: as §3, §2

In test [8] the target is T3, GST-KIX. The experiment in a line: protein retained on TentaGel beads with scrambled peptide, SDS-PAGE/Western blot.
A further test deals with T5, His6Gal80 (UniProt P04387 1-435).
T5 construct: also called Gal80 protein; Gal 80 protein; not shown: N-terminal His6 tag from vector pProEX-1
T5 sequence (looked up): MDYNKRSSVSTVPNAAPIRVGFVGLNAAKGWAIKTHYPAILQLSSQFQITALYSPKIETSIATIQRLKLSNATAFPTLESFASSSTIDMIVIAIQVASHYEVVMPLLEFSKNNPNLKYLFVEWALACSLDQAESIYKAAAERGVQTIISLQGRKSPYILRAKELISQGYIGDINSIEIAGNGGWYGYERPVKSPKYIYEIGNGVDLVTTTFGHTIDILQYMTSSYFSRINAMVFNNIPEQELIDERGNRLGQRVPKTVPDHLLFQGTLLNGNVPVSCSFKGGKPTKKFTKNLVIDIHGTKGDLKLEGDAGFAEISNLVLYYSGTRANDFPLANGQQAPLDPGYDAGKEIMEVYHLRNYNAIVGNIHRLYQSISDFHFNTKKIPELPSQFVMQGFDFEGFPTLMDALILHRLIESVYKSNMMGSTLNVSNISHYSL
Described as above.

A further test addresses maltose-binding protein (UniProt P0AEX9 27-392 = MBP). The test is described as follows: fluorescence polarization titration in solution.

T3 sequence (P45481 378-817): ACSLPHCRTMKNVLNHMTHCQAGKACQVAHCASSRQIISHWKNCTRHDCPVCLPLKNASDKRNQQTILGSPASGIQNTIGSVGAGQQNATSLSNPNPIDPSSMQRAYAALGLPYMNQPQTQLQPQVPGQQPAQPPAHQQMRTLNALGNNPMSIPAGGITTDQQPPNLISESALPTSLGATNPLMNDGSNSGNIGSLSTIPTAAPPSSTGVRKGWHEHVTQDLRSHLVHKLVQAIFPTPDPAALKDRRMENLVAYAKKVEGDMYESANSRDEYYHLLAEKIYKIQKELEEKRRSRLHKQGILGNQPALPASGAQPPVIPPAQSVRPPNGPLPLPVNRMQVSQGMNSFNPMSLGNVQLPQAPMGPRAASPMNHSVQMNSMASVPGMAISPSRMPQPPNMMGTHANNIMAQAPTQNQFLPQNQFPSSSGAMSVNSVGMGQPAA
T4 sequence (P45481 378-817): as above
T1 sequence (Q00987 1-188): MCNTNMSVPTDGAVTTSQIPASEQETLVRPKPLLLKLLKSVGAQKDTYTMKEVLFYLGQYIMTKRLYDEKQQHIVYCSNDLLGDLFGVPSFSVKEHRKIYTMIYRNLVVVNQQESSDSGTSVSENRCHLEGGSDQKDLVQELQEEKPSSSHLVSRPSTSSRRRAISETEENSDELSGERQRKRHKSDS

B1: Mdm2bpscram (peptide)
peptide: NVKWLDPNQELPSFLTSLE
modifications: attached to TentaGel resin in the bead assays
notes: Scrambled control of Mdm2bp
Consider B1, for which the binding result with GST-Mdm2 is reported as “no binding (tested: 300 nM)”.

B2: NH2-WGLRALESRWDRYYF (peptide)
peptide: H-WGLRALESRWDRYYF
notes: Hit of the library NH2-X7-S-RWDRYYF
In turn, B2 showed a Kd in the test with ubiquitin [1] of 12 µM. Further, the “fold better in solution than the lead peptide” value in the test with ubiquitin [2] was approximately 3 fold.

B3: NH2-RWDRYYF (peptide)
peptide: H-RWDRYYF
notes: Hit of a seven residue peptide library; also called ubiquitin lead peptide; lead peptide
Take B3: the affinity with ubiquitin [1], expressed as Kd, was 33 µM.

B4: KIXbp1 (peptide)
peptide: SVPGSVSWFEFWSAVDAVET
modifications: not fully specified (N-terminus); also: N-terminal carboxyfluorescein only in solution titrations, attached to TentaGel resin in bead assays
notes: Phage display 20-mer
On to B4, for which, in the test with GST-KIX [3], the “half-life of the immobilized complex” value is more than 2 h. The “half-life of the complex in solution” value in the test with GST-KIX [4] and with His6-KIX [5] was less than 10 s throughout. Further, the Kd with GST-KIX [6] and with His6-KIX [7] was 8 µM in each case.

B5: KIXbp1scram (peptide)
peptide: FSASFTEVVDAGWVSPWSVE
modifications: attached to TentaGel resin in the bead assays
notes: Scrambled control of KIXbp1
On to B5, for which the binding result in the test with GST-KIX [8] is listed as “no binding (tested: 300 nM)”.

B6: Gal80bpscram (peptide)
peptide: DLQRDTNKGFHEMFDWDYQN
modifications: attached to TentaGel resin in the bead assays
notes: Scrambled control of Gal80bp; also called Ga180bpscram; scrambled version of Gal80 bp
Consider B6, for which the binding result with His6Gal80 is on record as “no binding (tested: 300 nM)”.

B7: Mdm2bp (peptide)
peptide: PLSQETFSDLWKLLPENNV
modifications: not fully specified (N-terminus, C-terminus); also: N-terminal carboxyfluorescein only in solution titrations, attached to TentaGel resin in bead assays
notes: also called p53 derived peptide; p53-derived peptide
For B7, the binding result with maltose-binding protein is on record as “no binding”.

As a reminder, the Kd is the concentration at which binding is half-saturated.
